Measurements published in patent US9593156B2 (priority 2012, dated 2017).
Ends that are not written are not given here.

Tests used:
[1] = biological target: IGF-1 receptor (Homo sapiens, UniProt P08069); assay: IGF-1 receptor competition binding assay (scintillation proximity); set-up: expressed in transfected cells; plasma membrane fragments; conditions: Table 9; IGF-1 Receptor
[2] = biological target: T1, type A insulin receptor (IR-A) (Homo sapiens, UniProt P06213); assay: Receptor kinase activity (phosphorylation) assay, type A insulin receptor; assay type: cell-based
T1 construct: expressed in transfected cells; host or cells: HEK293

[3] = biological target: T2, type B insulin receptor (IR-B) (Homo sapiens, UniProt P06213); assay: Receptor kinase activity (phosphorylation) assay, type B insulin receptor; assay type: cell-based
T2 construct: expressed in transfected cells; host or cells: HEK293

Sequence of IGF-1 receptor (P08069 31-736 limits assumed): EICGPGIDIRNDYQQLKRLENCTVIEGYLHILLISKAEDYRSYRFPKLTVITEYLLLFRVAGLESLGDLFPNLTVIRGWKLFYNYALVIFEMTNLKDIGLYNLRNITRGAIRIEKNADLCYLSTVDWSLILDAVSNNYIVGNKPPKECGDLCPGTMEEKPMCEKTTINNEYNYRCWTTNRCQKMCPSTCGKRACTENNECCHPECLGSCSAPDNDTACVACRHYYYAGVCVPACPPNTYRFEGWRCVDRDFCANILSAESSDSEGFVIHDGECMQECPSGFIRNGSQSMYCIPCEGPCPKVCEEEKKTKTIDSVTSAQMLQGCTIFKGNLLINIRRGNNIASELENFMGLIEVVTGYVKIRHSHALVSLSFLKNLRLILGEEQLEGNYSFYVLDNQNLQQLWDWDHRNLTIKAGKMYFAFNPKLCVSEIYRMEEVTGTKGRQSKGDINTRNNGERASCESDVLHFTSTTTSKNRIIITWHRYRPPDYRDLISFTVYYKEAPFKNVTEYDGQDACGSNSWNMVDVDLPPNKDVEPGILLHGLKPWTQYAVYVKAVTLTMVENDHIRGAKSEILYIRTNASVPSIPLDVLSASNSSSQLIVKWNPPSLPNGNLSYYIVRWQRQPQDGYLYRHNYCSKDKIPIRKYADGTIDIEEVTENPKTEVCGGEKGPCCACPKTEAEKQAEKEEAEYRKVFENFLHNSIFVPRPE
Sequence of IGF-1 receptor (P08069 741-1367 partner limits assumed): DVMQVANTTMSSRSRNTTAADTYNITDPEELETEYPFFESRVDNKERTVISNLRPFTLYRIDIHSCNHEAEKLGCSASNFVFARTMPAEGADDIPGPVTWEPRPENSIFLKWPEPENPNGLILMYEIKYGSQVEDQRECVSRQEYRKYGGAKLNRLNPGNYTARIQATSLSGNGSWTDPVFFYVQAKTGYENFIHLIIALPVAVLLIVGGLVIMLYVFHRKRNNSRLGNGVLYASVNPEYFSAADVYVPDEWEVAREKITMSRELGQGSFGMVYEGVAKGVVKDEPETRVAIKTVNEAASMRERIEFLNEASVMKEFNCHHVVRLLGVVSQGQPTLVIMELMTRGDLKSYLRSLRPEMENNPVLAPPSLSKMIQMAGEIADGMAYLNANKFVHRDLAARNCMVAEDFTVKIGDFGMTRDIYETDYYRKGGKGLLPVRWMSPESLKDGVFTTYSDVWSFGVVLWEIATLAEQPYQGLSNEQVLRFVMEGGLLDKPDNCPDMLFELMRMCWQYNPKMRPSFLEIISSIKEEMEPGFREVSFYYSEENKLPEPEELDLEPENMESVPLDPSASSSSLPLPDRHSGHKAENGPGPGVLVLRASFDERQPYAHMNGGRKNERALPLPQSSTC

CC[C@H](C)[C@H](NC(=O)CN)C(=O)N[C@H](C(=O)N[C@@H](CC(=O)O)C(=O)N[C@@H](CCC(=O)O)C(=O)N[C@H]1CSSC[C@@H]2NC(=O)[C@H](CO)NC(=O)[C@H](CCCNC(=N)N)NC(=O)[C@H](Cc3ccccc3)NC(=O)[C@H](CSSC[C@H](NC(=O)[C@H](CC(C)C)NC(=O)[C@@H](NC(=O)[C@H](CCC(=O)O)NC(=O)[C@@H]3CCCN3C(=O)CN)[C@@H](C)O)C(=O)NCC(=O)N[C@@H](C)C(=O)N[C@@H](CCC(=O)O)C(=O)N[C@@H](CC(C)C)C(=O)N[C@@H](C(C)C)C(=O)N[C@@H](CC(=O)O)C(=O)N[C@@H](C)C(=O)N[C@@H](CC(C)C)C(=O)N[C@@H](Cc3ccc(O)cc3)C(=O)N[C@@H](CC(C)C)C(=O)N[C@@H](C(C)C)C(=O)N[C@H](C(=O)NCC(=O)N[C@@H](CC(=O)O)C(=O)N[C@@H](CCCNC(=N)N)C(=O)NCC(=O)N[C@@H](Cc3ccccc3)C(=O)N[C@@H](Cc3ccc(O)cc3)C(N)=O)CSSC[C@@H](C(=O)N[C@@H](C)C(N)=O)NC(=O)[C@H](Cc3ccc(O)cc3)NC(=O)[C@H](CCSC)NC(=O)[C@H](CCC(=O)O)NC(=O)[C@H](CC(C)C)NC(=O)[C@H](CCCNC(=N)N)NC(=O)[C@H](CCCNC(=N)N)NC(=O)[C@H](CC(C)C)NC(=O)[C@H](CC(=O)O)NC2=O)NC1=O)C(C)C [IGF-1 A:B (E10Y16L17) DPI]
% IGF-1 (in test) [1]: 3.3%

B1,A14-10K B^1(H5,10Y16L17R29)29:A^1(H8K14N18,21) (chain 1 GPEHLCGAHLVDALYLVCGDRGFYFNKR; chain 2 GIVDECCHRSCDLKRLENYCN) [di-10K-TC]
IR-A ([2]; Table 14): 6.4% | IR-B ([3]; Table 14): 2.1%

B1,A14-10K B^1(H5,10Y16L17R29)30-C^1des9-12-A^1(H8,K14,N18,21) (GPEHLCGAHLVDALYLVCGDRGFYFNKRTGYGSSSRRGIVDECCHRSCDLKRLENYCN) [MIU-79]
IR-A ([2]; Table 14): 1.7% | IR-B ([3]; Table 14): 0.2%

B1-PEG20K MIU-35 (GPEHLCGAHLVDALYLVCGDRGFYGYGSSSRRAPQTGIVDECCHRSCDLRRLENYCN; not fully specified (N-terminus); ends and bridges not checked; also: PEG20K at B1) [#39]
% Insulin Activity IR-A ([2]; Table 12): 3.1% | IR-A ([2]; Table 13): 4.5% | Phosphorylation (EC50) % IR-A ([2]; Table 17): 4.5% | % Insulin Activity IR-B ([3]; Table 12): 1.1% | IR-B ([3]; Table 13): 1.1% | Phosphorylation (EC50) % IR-B ([3]; Table 17): 1.1%

B^1(H5,10Y16L17)25-C^1-A^1(T8N18,21) (GPEHLCGAHLVDALYLVCGDRGFYGYGSSSRRAPQTGIVDECCTRSCDLRRLENYCN) [Thr,A8]
IR-A ([2]; Table 13): 20.4% | IR-B ([3]; Table 13): 8.4%

B^1(H5,10Y16L17K29)29-A^1(H8,N18,21) (GPEHLCGAHLVDALYLVCGDRGFYFNKKGIVDECCHRSCDLRRLENYCN) [DP3(SC)]
IR-A ([2]; Table 14): 0.03%

B^1(H5,10Y16L17K29)29:A^1(H8,N18,21) (chain 1 GPEHLCGAHLVDALYLVCGDRGFYFNKK; chain 2 GIVDECCHRSCDLRRLENYCN) [DP3(TC)]
IR-A ([2]; Table 14): 159.8% | IR-B ([3]; Table 14): 33.1%

B^1(H5,10Y16L17R29)30-C^1des9-12-A^1(H8,K14,N18,21) (GPEHLCGAHLVDALYLVCGDRGFYFNKRTGYGSSSRRGIVDECCHRSCDLKRLENYCN) [DP8Mut3KA14]
IR-A ([2]; Table 14): 132.2% | IR-B ([3]; Table 14): 12.6%

B1: GE5W-B^1(H5,10Y16L17)25-C^1-A^1(A1H8N18,21) (protein)
chain: GEEEEEWGPEHLCGAHLVDALYLVCGDRGFYGYGSSSRRAPQTAIVDECCHRSCDLRRLENYCN
IR-A ([2]; Table 13): 2.1% | IR-B ([3]; Table 13): 0.7%
